Drawing on patent publication US20230322900A1, this text covers Concentration on aFVIII/Myc ÷ concentration on aHis/Myc, Ratio to Control and Relative Remaining Activity for three substances.

Experiment [1] addresses FVIII-XTEN-His-Myc, XTEN insertion A2, 403, AG144 (human). Nature of the experiment: sandwich ELISA, antibody capture, anti-Myc detection, normalised to anti-His capture. On the technique in general: In an ELISA, binding on a coated surface is turned into a signal by an enzyme label.
Experiment [2] concerns the target FVIII-XTEN-His-Myc, XTEN insertion A1, 26, AG144 (human). The experiment is described as above.
The target of experiment [3] is FVIII-XTEN-His-Myc, XTEN insertion A1, 40, AE144 (human). The description is as above.
Experiment [4] addresses FVIII-XTEN-His-Myc, XTEN insertion A2, 403, AE144 (human). The experiment is described as above.
The target in experiment [5] is FVIII-XTEN-His-Myc, XTEN insertion A1, 18, AE144 (human). Described as above.
The target of experiment [6] is FVIII-XTEN-His-Myc, XTEN insertion A2, 399, AE144 (human). The description is as above.
Experiment [7] addresses FVIII-His-Myc (non-XTEN containing FVIII-His-Myc protein) (human). The experiment is described as above.
Experiment [8] concerns the target FVIII-XTEN-His-Myc, XTEN insertion A1, 18, AG144 (human). The experiment is described as above.
The target of experiment [9] is FVIII-XTEN-His-Myc, XTEN insertion A1, 26, AE144 (human). The experiment is described as above.
Experiment [10] deals with FVIII-XTEN-His-Myc, XTEN insertion A3, 1656, AG144 (human). The experiment is described as above.
Experiment [11] has as its target FVIII-XTEN-His-Myc, XTEN insertion A1, 40, AG144 (human). The experiment is described as above.
The target of experiment [12] is pBC0114 BDD FVIII base construct (pcDNA4-FVIII_4-…-Myc-SPATG-His) (human) (UniProt P00451). In words: cell-based or functional assay.
The target of experiment [13] is pBC0149 (human) (UniProt P00451). Nature of the experiment: cell-based or functional assay.

“ESH8 anti-FVIII antibody (American Diagnostica Inc.)”: the Concentration on aFVIII/Myc ÷ concentration on aHis/Myc in experiment [1] came out at 129%; in experiment [2], 147%; in experiment [3] it was 147%; in [4] it was 141%; in [5], 130%; in [6], 140%. Further, the Concentration on aFVIII/Myc ÷ concentration on aHis/Myc was 104% in [7]; 131% in experiment [8]; 87% in experiment [9]; 158% in experiment [10]; 153% in [11].

For the substance GMA8008 FVIII inhibitor antibody, the Ratio to Control in experiment [12] was 1. In [13], the Ratio to Control was 0.8 and the Relative Remaining Activity came to 0.1.

As to “GMA-8021 anti-FVIII monoclonal antibody (Green Mountain Antibodies)”, the Ratio to Control was 1 in [12] and 1.3 in [13]. The same substance returned a Relative Remaining Activity in [13] of 0.2. Moreover, the Concentration on aFVIII/Myc ÷ concentration on aHis/Myc in experiment [1] stood at 104%; in experiment [2] it was 157%; in experiment [3], 137%; in [4] it was 103%; in experiment [5], 129%; in experiment [6], 100%. In addition, the Concentration on aFVIII/Myc ÷ concentration on aHis/Myc was 92% in experiment [7]; 150% in [8]; 155% in experiment [9]; 153% in experiment [10]; 164% in [11].
